Laboratory results: patent US20230012273A1 (Boehringer Ingelheim, published 2023)

T1: cynoSIRPα (XP_015313155), Extracellular Domain + His-Tag (cynomolgus monkey)
T1 construct: also called CySIRPα XP_015313155; not shown: His-Tag
T1 chain: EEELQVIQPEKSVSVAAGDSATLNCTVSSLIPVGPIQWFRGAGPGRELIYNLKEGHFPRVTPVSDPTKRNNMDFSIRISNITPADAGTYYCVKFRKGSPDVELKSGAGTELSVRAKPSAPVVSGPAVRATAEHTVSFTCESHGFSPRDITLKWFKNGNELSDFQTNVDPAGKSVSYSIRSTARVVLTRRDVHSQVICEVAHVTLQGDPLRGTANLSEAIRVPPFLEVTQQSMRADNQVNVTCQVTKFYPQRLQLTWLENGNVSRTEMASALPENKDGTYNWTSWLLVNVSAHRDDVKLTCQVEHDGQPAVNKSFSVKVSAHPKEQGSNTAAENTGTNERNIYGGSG

T2: cynoSIRPα (EGM_02252), Extracellular Domain + His-Tag (cynomolgus monkey)
T2 construct: also called CySIRPα EGM_02252; not shown: His-Tag
T2 chain: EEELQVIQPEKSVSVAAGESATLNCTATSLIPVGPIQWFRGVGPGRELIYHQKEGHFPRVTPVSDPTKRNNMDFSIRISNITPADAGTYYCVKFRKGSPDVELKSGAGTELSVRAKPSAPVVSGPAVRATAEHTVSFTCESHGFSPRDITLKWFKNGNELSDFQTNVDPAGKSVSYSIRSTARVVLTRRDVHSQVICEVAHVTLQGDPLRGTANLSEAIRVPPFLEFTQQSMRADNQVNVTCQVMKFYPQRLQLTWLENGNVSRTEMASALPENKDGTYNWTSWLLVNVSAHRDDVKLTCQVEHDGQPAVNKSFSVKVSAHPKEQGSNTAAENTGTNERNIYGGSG

T3: cynoSIRPα (NP_001271679), Extracellular Domain + His-Tag (cynomolgus monkey)
T3 construct: also called CySIRPα NP_001271679; not shown: His-Tag
T3 chain: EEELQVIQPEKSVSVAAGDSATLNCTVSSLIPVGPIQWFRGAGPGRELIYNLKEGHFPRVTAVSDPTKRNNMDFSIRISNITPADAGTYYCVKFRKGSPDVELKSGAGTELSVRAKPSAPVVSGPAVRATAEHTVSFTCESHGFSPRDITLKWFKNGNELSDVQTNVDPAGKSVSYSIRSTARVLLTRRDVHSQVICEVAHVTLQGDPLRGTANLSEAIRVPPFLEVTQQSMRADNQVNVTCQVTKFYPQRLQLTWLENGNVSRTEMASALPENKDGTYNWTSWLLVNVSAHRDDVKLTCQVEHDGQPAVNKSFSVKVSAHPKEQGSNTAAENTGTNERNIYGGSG


Key:
[1] = target: T4, Human SIRPαV2 (CAA71403.1), Extracellular Domain + His-Tag (human, UniProt P78324 31-373); assay: SPR, antibody captured on Protein A/G, ECD-His analyte, 1:1 fit
T4 construct: also called huSIRPαV2; hSIRPαV2; not shown: His-Tag
T4 sequence (P78324 other isoform, or with tags, fused parts or gaps): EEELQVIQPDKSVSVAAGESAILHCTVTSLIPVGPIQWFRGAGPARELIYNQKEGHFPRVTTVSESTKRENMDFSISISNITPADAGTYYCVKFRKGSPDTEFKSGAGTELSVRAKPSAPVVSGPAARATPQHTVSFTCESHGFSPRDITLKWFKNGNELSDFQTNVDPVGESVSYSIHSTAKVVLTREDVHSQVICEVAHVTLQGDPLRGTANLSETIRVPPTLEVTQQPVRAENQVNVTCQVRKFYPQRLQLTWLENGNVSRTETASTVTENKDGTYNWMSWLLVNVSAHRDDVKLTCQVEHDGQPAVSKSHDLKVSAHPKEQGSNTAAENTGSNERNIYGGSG
Summary of the method: (§1)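 Analyte was His-tagged SIRPα extracellular domain in dilution series, associating 300 s and dissociating 600 s at 30 μl/min. Ligand was antibody captured (~240 RU) on immobilized Protein A/G (~3000 RU). Running buffer HBS-EP+.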

[2] = target: T5, Human SIRPαV1 (NP_542970.1), Extracellular Domain + His-Tag (human, UniProt P78324 31-373); assay: as above
T5 construct: also called huSIRPαV1; hSIRPαV1; not shown: His-Tag
T5 sequence (P78324 other isoform, or with tags, fused parts or gaps): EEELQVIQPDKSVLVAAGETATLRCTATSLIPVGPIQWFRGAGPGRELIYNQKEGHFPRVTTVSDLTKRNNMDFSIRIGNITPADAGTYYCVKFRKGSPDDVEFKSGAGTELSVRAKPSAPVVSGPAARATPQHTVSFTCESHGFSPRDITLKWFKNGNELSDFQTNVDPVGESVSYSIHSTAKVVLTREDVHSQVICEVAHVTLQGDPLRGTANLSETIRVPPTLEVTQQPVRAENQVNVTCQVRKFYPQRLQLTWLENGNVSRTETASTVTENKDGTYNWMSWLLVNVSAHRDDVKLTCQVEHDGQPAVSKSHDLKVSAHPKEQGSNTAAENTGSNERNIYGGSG
Summary of the method: as §1

[3] = target: T1, cynoSIRPα (XP_015313155), Extracellular …; assay: SPR, antibody captured on Protein A/G, ECD-His analyte, steady-state fit
Description: (§2) The binding kinetics of anti-SIRPα antibodies to various SIRPα analytes are determined by surface plasmon resonance (SPR) using a Biacore 8K+(Cytiva). 1×HBS-EP+(Cytiva) is used as running buffer and for all the dilutions unless stated otherwise. The Series S CM5 sensorchip is activated with a 1:1 mixture of 0.1 M NHS (N-hydroxysuccinimide) and 0.4 M EDC (1-Ethyl-3-(3-dimethylaminopropyl) carbodiimide hydrochloride) for 420 seconds at a flow rate of 10 μl/min and immobilized with Protein A/G (Thermo Scientific, 10 μg/ml in 10 mM acetate pH 4.5) for 420 seconds at a flowrate of 10 μl/min resulting in approximately 3000 RU of Protein A/G on the surface. The sensorchip is then deactivated with 1 M ethanolamine HCl pH 8.5 for 420 seconds at a flowrate of 10 μl/min.
(§3) Antibodies (approximately 1 ug/ml) are captured on the Protein A/G surface for 60 seconds at a flowrate of 10 μl/min resulting in capture levels of approximately 240 RU. Dilutions of each SIRP protein (Extracellular Domain+His-Tag, with the concentrations as indicated) are injected as analytes over the captured antibody for 300 seconds of association at a flowrate of 30 μl/min, followed by a dissociation for 600 seconds.
(§4) The above procedures are used to measure binding properties of antibodies of the present disclosure. For each analyte used, the highest concentration was as indicated in Example 3 (see Table 36).

[4] = target: T2, cynoSIRPα (EGM_02252), Extracellular …; assay: as above
Description: as §2, §3, §4

[5] = target: T3, cynoSIRPα (NP_001271679), Extracellular …; assay: as above
Description: as §2, §3, §4

| Binder | Kd [1] [nM] | koff [1] [s⁻¹] | kon [1] [M⁻¹ s⁻¹] | Kd [2] [nM] | koff [2] [s⁻¹] | kon [2] [M⁻¹ s⁻¹] | Kd [3] [nM] | Kd [4] [nM] | Kd [5] [nM] |
| --- | --- | --- | --- | --- | --- | --- | --- | --- | --- |
| Antibody A1 (antibody, human IgG1, kappa, L234A L235A, V domains shown) VH: EVQLVESGGGLVQPGGSLRLSCAASGFTLSSYDMHWVRQAPGKGLEWVSAIGTAGDTYYTGSVKGRFTISRENAKNSLYLQMNSLRADDTAVYYCVRGGVWDDAFDIWGQGTMVTVSS VL: DIQMTQSPSSLSASVGDRVTITCRASQGINNYAAWFQQKPGKAPKSLIYTASSLHSGVPSKFSGSGSGTDFTLTISSLQPEDFATYYCQQYVSYPYTFGQGTKLEIKR | 18.6 | 0.0162 | 869000 | 8.6 | 0.00625 | 727000 | 427 | 523 | 780 |
| Antibody A4 (antibody, human IgG1, kappa, L234A L235A, V domains shown) VH: EVQLVESGGGLVQPGGSLRLSCAASGFTLSSYDMHWVRQAPGKGLEWVSAIGTAGDTYYTGSVKGRFTISRENAKNSLYLQMNSLRAADTAVYYCVRGGVWDDAFDIWGQGTMVTVSS VL: DIQMTQSPSSLSASVGDRVTITCRASQGINNYAAWFQQKPGKAPKSLIYTASSLHSGVPSKFSGSGSGTDFTLTISSLQPEDFATYYCQQYVSYPYTFGQGTKLEIKR |  |  |  |  |  |  | 420 | 488 | 669 |
| Antibody A6 (antibody, human IgG1, kappa, L234A L235A, V domains shown) VH: EVQLVESGGGLVQPGGSLRLSCAASGFTLSSYDMHWVRQAPGKGLEWVSAIGTAGDTYYTGSVKGRFTISRENAKNSLYLQMNSLRAEDTAVYYCVRGGVWDDAFDIWGQGTMVTVSS VL: DIQMTQSPSSLSASVGDRVTITCRASQGINNYAAWFQQKPGKAPKSLIYTASSLHSGVPSKFSGSGSGTDFTLTISSLQPEDFATYYCQQYVSYPYTFGQGTKLEIKR | 18.1 | 0.0171 | 947000 | 8.28 | 0.00634 | 766000 | 420 | 521 | 684 |
| Antibody A3 (antibody, human IgG1, kappa, L234A L235A, V domains shown) VH: EVQLVESGGGLVQPGGSLRLSCAASGFTLSSYDMHWVRQATGKGLEWVSAIGTAGDTYYTGSVKGRFTISRENAKNSLYLQMNSLRASDTAVYYCVRGGVWDDAFDIWGQGTMVTVSS VL: DIQMTQSPSSLSASVGDRVTITCRASQGINNYAAWFQQKPGKAPKSLIYTASSLHSGVPSKFSGSGSGTDFTLTISSLQPEDFATYYCQQYVSYPYTFGQGTKLEIKR | 19.6 | 0.0178 | 907000 | 9.06 | 0.00661 | 730000 | 480 | 560 | 857 |
| Antibody A7 (antibody, human IgG1, kappa, L234A L235A, V domains shown) VH: EVQLVESGGGLVQPGGSLRLSCAASGFTLSSYDMHWVRQATGKGLEWVSAIGTAGDTYYTGSVKGRFTISRENAKNSLYLQMNSLRAGDTAVYYCVRGGVWDDAFDIWGQGTMVTVSS VL: DIQMTQSPSSLSASVGDRVTITCRASQGINNYAAWFQQKPGKAPKSLIYTASSLHSGVPSKFSGSGSGTDFTLTISSLQPEDFATYYCQQYVSYPYTFGQGTKLEIKR | 20.4 | 0.019 | 933000 | 9.38 | 0.00672 | 716000 | 466 | 588 | 741 |
| Antibody A2 (antibody, human IgG1, kappa, L234A L235A, V domains shown) VH: EVQLVESGGGLVQPGGSLRLSCAASGFTLSSYDMHWVRQATGKGLEWVSAIGTAGDTYYTGSVKGRFTISRENAKNSLYLQMNSLRAADTAVYYCVRGGVWDDAFDIWGQGTMVTVSS VL: DIQMTQSPSSLSASVGDRVTITCRASQGINNYAAWFQQKPGKAPKSLIYTASSLHSGVPSKFSGSGSGTDFTLTISSLQPEDFATYYCQQYVSYPYTFGQGTKLEIKR | 20.9 | 0.0184 | 883000 | 9.39 | 0.00685 | 729000 | 469 | 556 | 887 |

Further binders by falling Kd [3], results first:

| Kd [1] [nM] | koff [1] [s⁻¹] | kon [1] [M⁻¹ s⁻¹] | Kd [2] [nM] | koff [2] [s⁻¹] | kon [2] [M⁻¹ s⁻¹] | Kd [3] [nM] | Kd [4] [nM] | Kd [5] [nM] | Binder |
| --- | --- | --- | --- | --- | --- | --- | --- | --- | --- |
| 17.8 | 0.0162 | 909000 | 8.75 | 0.00598 | 684000 | 415 | 517 | 665 | Antibody A5 (antibody, human IgG1, kappa, L234A L235A, V domains shown) VH: EVQLVESGGGLVQPGGSLRLSCAASGFTLSSYDMHWVRQAPGKGLEWVSAIGTAGDTYYTGSVKGRFTISRENAKNSLYLQMNSLRASDTAVYYCVRGGVWDDAFDIWGQGTMVTVSS VL: DIQMTQSPSSLSASVGDRVTITCRASQGINNYAAWFQQKPGKAPKSLIYTASSLHSGVPSKFSGSGSGTDFTLTISSLQPEDFATYYCQQYVSYPYTFGQGTKLEIKR |
| 18.8 | 0.0162 | 859000 | 8.53 | 0.00604 | 708000 | 415 | 520 | 639 | Antibody A8 (antibody, human IgG1, kappa, L234A L235A, V domains shown) VH: EVQLVESGGGLVQPGGSLRLSCAASGFTLSSYDMHWVRQAPGKGLEWVSAIGTAGDTYYTGSVKGRFTISRENAKNSLYLQMNSLRAGDTAVYYCVRGGVWDDAFDIWGQGTMVTVSS VL: DIQMTQSPSSLSASVGDRVTITCRASQGINNYAAWFQQKPGKAPKSLIYTASSLHSGVPSKFSGSGSGTDFTLTISSLQPEDFATYYCQQYVSYPYTFGQGTKLEIKR |
|  |  |  |  |  |  | 204 | 298 | 410 | Antibody A11 (antibody, human IgG4 S228P, kappa) heavy: not shown light: DIQMTQSPSSLSASVGDRVTITCRASQDINNYLAWFQQKPGKAPKSLIYTASSLHSGVPSKFSGSGSGTDFTLTISSLQPEDFATYYCQQYVSYPYTFGQGTKLEIKRTVAAPSVFIFPPSDEQLKSGTASVVCLLNNFYPREAKVQWKVDNALQSGNSQESVTEQDSKDSTYSLSSTLTLSKADYEKHKVYACEVTHQGLSSPVTKSFNRGEC |
|  |  |  |  |  |  | 203 | 282 | 388 | Antibody A10 (antibody, human IgG1, kappa, L234A L235A) heavy: not shown light: DIQMTQSPSSLSASVGDRVTITCRASQDINNYLAWFQQKPGKAPKSLIYTASSLHSGVPSKFSGSGSGTDFTLTISSLQPEDFATYYCQQYVSYPYTFGQGTKLEIKRTVAAPSVFIFPPSDEQLKSGTASVVCLLNNFYPREAKVQWKVDNALQSGNSQESVTEQDSKDSTYSLSSTLTLSKADYEKHKVYACEVTHQGLSSPVTKSFNRGEC |
